The values below come from patent publication US20210032299A1 (Eli Lilly, published 2021).

Starred links: 1 amine or outer side, 2 acyl side, 3 side chain; linkers in the order of their positions; H or OH if unused. Non-standard residues stand in square brackets, D forms with d. Groups on a side chain read outwards from the residue. No end group written: not given here. *: point of attachment. C20 diacid = O=C(O)CCCCCCCCCCCCCCCCCCC(=O)*; γGlu = O=C(O)[C@H](CCC(=O)[*:2])N[*:1]; αMeL = CC(C)C[C@](C)(N)C(=O)O; AEEA = NCCOCCOCC(=O)O; Aib = CC(C)(N)C(=O)O

The Ki is a dissociation constant, usually derived from enzyme kinetics or from competition with a known ligand. Read a low Ki as a stronger hold on the target.

Assay [1] concerns the target T1, human glucose-dependent insulinotropic polypeptide (GIP) receptor (human, UniProt P48546 22-466).
T1 construct: whole, on cells; Assayed as crude membranes of stably transfected CHO cells; also called hGIPR; human GIP receptor
T1 sequence (looked up): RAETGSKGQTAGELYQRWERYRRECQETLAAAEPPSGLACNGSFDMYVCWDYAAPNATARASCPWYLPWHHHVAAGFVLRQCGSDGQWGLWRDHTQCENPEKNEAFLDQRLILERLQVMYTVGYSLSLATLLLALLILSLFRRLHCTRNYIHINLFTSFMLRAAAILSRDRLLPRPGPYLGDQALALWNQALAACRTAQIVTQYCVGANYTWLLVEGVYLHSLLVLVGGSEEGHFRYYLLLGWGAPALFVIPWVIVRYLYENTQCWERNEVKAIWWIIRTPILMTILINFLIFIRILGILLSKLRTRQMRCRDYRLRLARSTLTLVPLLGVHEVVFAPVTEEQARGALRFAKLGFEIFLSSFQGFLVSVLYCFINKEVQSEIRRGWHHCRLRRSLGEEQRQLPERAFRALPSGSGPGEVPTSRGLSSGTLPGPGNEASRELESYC
As to the kind of experiment: SPA, displacement of [125I]-GIP from hGIPR membranes, 0.1% bacitracin.

A further assay addresses T2, human glucagon receptor (human, UniProt P47871 26-477).
T2 construct: whole, on cells; Assayed as crude membranes of stably transfected HEK293 cells; also called hGcgR; GcgR
As to the kind of experiment: SPA, displacement of [125I]-Gcg from hGcgR membranes, 0.1% bacitracin. Summed up: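 Binding buffer: 25 mM HEPES pH 7.4, 2.5 mM CaCl₂, 1 mM MgCl₂, 0.003% Tween-20, protease inhibitors without EDTA. Counted by scintillation after 12 h incubation/settling at room temperature. Four-parameter nonlinear fit; Kᵢ given as geometric mean ± SEM of independent replicates run on different days.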

The target of another assay is T3, human GLP-1 receptor (human, UniProt P43220 24-463).
T3 construct: whole, on cells; Assayed as crude membranes of stably transfected HEK293 cells; also called hGLP1R; hGLP-1R
In words: SPA, displacement of [125I]-GLP-1 from hGLP-1R membranes, 0.1% bacitracin. Summed up: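 Binding buffer: 25 mM HEPES pH 7.4, 2.5 mM CaCl₂, 1 mM MgCl₂, 0.1% bacitracin, 0.003% Tween-20, protease inhibitors without EDTA. Four-parameter nonlinear regression; Kᵢ given as geometric mean ± SEM, n = independent replicates run on different days.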
(In general: Loss of bound radioactivity is the signal in a displacement assay; it reports binding, not function.)

T2 sequence (P47871 26-477): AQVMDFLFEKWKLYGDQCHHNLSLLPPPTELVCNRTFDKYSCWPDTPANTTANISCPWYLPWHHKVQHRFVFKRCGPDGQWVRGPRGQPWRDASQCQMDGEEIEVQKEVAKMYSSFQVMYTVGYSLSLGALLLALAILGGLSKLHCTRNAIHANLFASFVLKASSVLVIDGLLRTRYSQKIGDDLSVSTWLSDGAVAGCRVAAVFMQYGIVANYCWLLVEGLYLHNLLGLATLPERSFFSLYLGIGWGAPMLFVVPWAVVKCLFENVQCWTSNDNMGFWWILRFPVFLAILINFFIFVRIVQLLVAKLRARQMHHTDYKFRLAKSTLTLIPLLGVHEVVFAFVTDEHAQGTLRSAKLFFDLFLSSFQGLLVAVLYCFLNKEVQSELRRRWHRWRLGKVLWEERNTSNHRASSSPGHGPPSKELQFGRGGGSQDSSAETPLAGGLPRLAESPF

B1: Example 66 (peptide)
peptide: Y[Aib]EGTFISDYSI[αMeL]LDKK([AEEA-AEEA-γGlu-C20 diacid])HQ[Aib]DFVEYLLETGPSSGAPPPS-NH2
modifications: N-terminus assumed
SMILES: CC[C@H](C)[C@H](NC(=O)[C@H](Cc1ccccc1)NC(=O)[C@@H](NC(=O)CNC(=O)[C@H](CCC(=O)O)NC(=O)C(C)(C)NC(=O)[C@@H](N)Cc1ccc(O)cc1)[C@@H](C)O)C(=O)N[C@@H](CO)C(=O)N[C@@H](CC(=O)O)C(=O)N[C@@H](Cc1ccc(O)cc1)C(=O)N[C@@H](CO)C(=O)N[C@H](C(=O)N[C@@](C)(CC(C)C)C(=O)N[C@@H](CC(C)C)C(=O)N[C@@H](CC(=O)O)C(=O)N[C@@H](CCCCN)C(=O)N[C@@H](CCCCNC(=O)COCCOCCNC(=O)COCCOCCNC(=O)CC[C@H](NC(=O)CCCCCCCCCCCCCCCCCCC(=O)O)C(=O)O)C(=O)N[C@@H](Cc1c[nH]cn1)C(=O)N[C@@H](CCC(N)=O)C(=O)NC(C)(C)C(=O)N[C@@H](CC(=O)O)C(=O)N[C@@H](Cc1ccccc1)C(=O)N[C@H](C(=O)N[C@@H](CCC(=O)O)C(=O)N[C@@H](Cc1ccc(O)cc1)C(=O)N[C@@H](CC(C)C)C(=O)N[C@@H](CC(C)C)C(=O)N[C@@H](CCC(=O)O)C(=O)N[C@H](C(=O)NCC(=O)N1CCC[C@H]1C(=O)N[C@@H](CO)C(=O)N[C@@H](CO)C(=O)NCC(=O)N[C@@H](C)C(=O)N1CCC[C@H]1C(=O)N1CCC[C@H]1C(=O)N1CCC[C@H]1C(=O)N[C@@H](CO)C(N)=O)[C@@H](C)O)C(C)C)[C@@H](C)CC
On to B1, for which the Ki in assay [1] was 0.0866 nM; with human glucagon receptor, 279 nM; in the assay with human GLP-1 receptor it was 326 nM.

B2: Example 68 (peptide)
peptide: Y[Aib]EGTFISDYSI[αMeL]LDKK([AEEA-AEEA-γGlu-C20 diacid])HQ[Aib]DFVEYLLEAGPSSGAPPPS-NH2
modifications: N-terminus assumed
SMILES: CC[C@H](C)[C@H](NC(=O)[C@H](Cc1ccccc1)NC(=O)[C@@H](NC(=O)CNC(=O)[C@H](CCC(=O)O)NC(=O)C(C)(C)NC(=O)[C@@H](N)Cc1ccc(O)cc1)[C@@H](C)O)C(=O)N[C@@H](CO)C(=O)N[C@@H](CC(=O)O)C(=O)N[C@@H](Cc1ccc(O)cc1)C(=O)N[C@@H](CO)C(=O)N[C@H](C(=O)N[C@@](C)(CC(C)C)C(=O)N[C@@H](CC(C)C)C(=O)N[C@@H](CC(=O)O)C(=O)N[C@@H](CCCCN)C(=O)N[C@@H](CCCCNC(=O)COCCOCCNC(=O)COCCOCCNC(=O)CC[C@H](NC(=O)CCCCCCCCCCCCCCCCCCC(=O)O)C(=O)O)C(=O)N[C@@H](Cc1c[nH]cn1)C(=O)N[C@@H](CCC(N)=O)C(=O)NC(C)(C)C(=O)N[C@@H](CC(=O)O)C(=O)N[C@@H](Cc1ccccc1)C(=O)N[C@H](C(=O)N[C@@H](CCC(=O)O)C(=O)N[C@@H](Cc1ccc(O)cc1)C(=O)N[C@@H](CC(C)C)C(=O)N[C@@H](CC(C)C)C(=O)N[C@@H](CCC(=O)O)C(=O)N[C@@H](C)C(=O)NCC(=O)N1CCC[C@H]1C(=O)N[C@@H](CO)C(=O)N[C@@H](CO)C(=O)NCC(=O)N[C@@H](C)C(=O)N1CCC[C@H]1C(=O)N1CCC[C@H]1C(=O)N1CCC[C@H]1C(=O)N[C@@H](CO)C(N)=O)C(C)C)[C@@H](C)CC
As to B2, the Ki came out at 0.0948 nM in assay [1], 290 nM in the assay with human glucagon receptor and 421 nM in the assay with human GLP-1 receptor.
